{"source": "patent US20250281587A1", "about": "(ELANCO US, published 2025)", "binders": {"B1": {"name": "purified feline IL-1β wild type (ligand)", "chain": "MGSAAIQSQDYTFRDISQKSLVLSGSYELRALHLNGQNMNQQVVFRMSFVHGEENSKKIPVVLCIKKNNLYLSCVMKDGKPTLQLEMLDPKVYPKKKMEKRFVFNKTEIKGNVEFESSQFPNWYISTSQAEEMPVFLGNTKGGQDITDFIMESASTSHHHHHHGGCG", "notes": "also called purified wild type feline IL-1β; recombinant feline wild type IL-1β"}}, "target": "T1, recombinant mouse IL-1RI Fc chimera (R&D 771-MR-100) (mouse, UniProt P13504 20-338)", "T1 construct": "Coated on ELISA plates at 1 µg/ml; Used instead of canine or feline IL-1RI, which were not commercially available; also called IL-1RI receptor; Fc part of the bought chimera not given", "T1 sequence (looked up)": "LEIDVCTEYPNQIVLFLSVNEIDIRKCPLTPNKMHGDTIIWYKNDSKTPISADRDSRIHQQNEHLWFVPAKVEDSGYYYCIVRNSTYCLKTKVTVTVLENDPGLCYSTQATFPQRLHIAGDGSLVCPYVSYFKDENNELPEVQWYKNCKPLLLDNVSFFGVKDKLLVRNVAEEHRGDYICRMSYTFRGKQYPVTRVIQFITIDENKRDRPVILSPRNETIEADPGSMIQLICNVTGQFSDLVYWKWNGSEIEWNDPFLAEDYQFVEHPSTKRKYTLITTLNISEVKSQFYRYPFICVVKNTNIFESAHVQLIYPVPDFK", "experiment": "ELISA, mouse IL-1RI Fc chimera coated, detection with biotinylated anti-fIL-1β antibody", "data": [{"binder": "B1", "values": [{"measurement": "binding result", "result": "binds"}]}]}
